Measured values: patent US20240270846A1 (published 2024)
Positions count from the first letter of the chain named. In names and notes the source's numbering stands. Blank lines part the entries; values can stand above or below the binder they belong to.

Biological target: T1, CD3 epsilon homodimer protein (UniProt P07766 23-126)
T1 construct: Construct of the homodimer is not described; also called CD3 (CD3 epsilon)
Assay: SPR Biacore T200, CD3e homodimer on chip, antibody analyte;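 further: CD3 epsilon homodimer amine-coupled on CM4 sensor chip, antibodies injected as analyte at 25 °C in HBS-EP+, ratio ≥0.8 taken as binding retained versus unaltered parent antibody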

T1 sequence (P07766 23-126): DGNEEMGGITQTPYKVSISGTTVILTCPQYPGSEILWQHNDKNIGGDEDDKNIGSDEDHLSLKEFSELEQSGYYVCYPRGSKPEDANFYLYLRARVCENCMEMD

ratio of amounts bound (altered form/GLS3000): 0.92
B2: GLS3000 S56G one-arm antibody (antibody, human IgG1, kappa, L234A L235A, N297A, name in Kabat numbering)
light: DIVMTQSPLSLPVTPGEPASISCRSSQSLVHSNRNTYLHWYQQKPGQAPRLLIYKVSNRFGGVPDRFSGSGSGTDFTLKISRVEAEDVGVYYCGQGTQVPYTFGQGTKLEIKRTVAAPSVFIFPPSDEQLKSGTASVVCLLNNFYPREAKVQWKVDNALQSGNSQESVTEQDSKDSTYSLSSTLTLSKADYEKHKVYACEVTHQGLSSPVTKSFNRGEC
heavy: QVQLVESGGGVVQPGRSLRLSCAASGFTFSNAWMHWVRQAPGKGLEWVAQIKAKSNNYATYYAESVKGRFTISRDDSKNSLYLQMNSLKTEDTAVYYCRYVHYGAYYGVDAWGQGTTVTVSSASTKGPSVFPLAPSSKSTSGGTAALGCLVKDYFPEPVTVSWNSGALTSGVHTFPAVLQSSGLYSLSSVVTVPSSSLGTQTYICNVNHKPSNTKVDKKVEPKSCDKTHTCPPCPAPEAAGGPSVFLFPPKPKDTLMISRTPEVTCVVVDVSHEDPEVKFNWYVDGVEVHNAKTKPREEQYASTYRVVSVLTVLHQDWLNGKEYKCKVSNKALPAPIEKTISKAKGQPREPQVYTLPPSRCELTKNQVSLSCAVKGFYPSDIAVEWESNGQPENNYKTTPPVLDSDGSFFLVSKLTVDKSRWQQGNVFSCSVMHEALHNHYTQKSLSLSPDYKDDDDK
chain: EPKSSDKTHTCPPCPAPELLGGPSVFLFPPKPKDTLMISRTPEVTCVVVDVSHEDPEVKFNWYVDGVEVHNAKTKPREEQYNSTYRVVSVLTVLHQDWLNGKEYKCKVSNKALPAPIEKTISKAKGQPREPQVCTLPPSRDELTKNQVSLWCLVKGFYPSDIAVEWESNGQPENNYKTTPPVLDSDGSFFLYSKLTVDKSRWQQGNVFSCSVMHEALHNRYTQKSLSLSP

ratio of amounts bound (altered form/GLS3000): 1.36
B9: GLS3000 S56R one-arm antibody (antibody, human IgG1, kappa, L234A L235A, N297A, name in Kabat numbering)
light: B2 light with G61R
heavy: B2 heavy
chain: B2 chain

ratio of amounts bound (altered form/GLS3000): 0.99
B11: GLS3000 S56I one-arm antibody (antibody, human IgG1, kappa, L234A L235A, N297A, name in Kabat numbering)
light: B2 light with G61I
heavy: B2 heavy
chain: B2 chain

ratio of amounts bound (altered form/GLS3000): 1.05
B14: GLS3000 S56H one-arm antibody (antibody, human IgG1, kappa, L234A L235A, N297A, name in Kabat numbering)
light: B2 light with G61H
heavy: B2 heavy
chain: B2 chain

ratio of amounts bound (altered form/GLS3000): 1.05
B16: GLS3000 S56M one-arm antibody (antibody, human IgG1, kappa, L234A L235A, N297A, name in Kabat numbering)
light: B2 light with G61M
heavy: B2 heavy
chain: B2 chain

ratio of amounts bound (altered form/GLS3000): 1.32
B18: GLS3000 S56F one-arm antibody (antibody, human IgG1, kappa, L234A L235A, N297A, name in Kabat numbering)
light: B2 light with G61F
heavy: B2 heavy
chain: B2 chain

ratio of amounts bound (altered form/GLS3000): 1.04
B21: GLS3000 S56Q one-arm antibody (antibody, human IgG1, kappa, L234A L235A, N297A, name in Kabat numbering)
light: B2 light with G61Q
heavy: B2 heavy
chain: B2 chain

ratio of amounts bound (altered form/GLS3000): 1.46
B23: GLS3000 S56K one-arm antibody (antibody, human IgG1, kappa, L234A L235A, N297A, name in Kabat numbering)
light: B2 light with G61K
heavy: B2 heavy
chain: B2 chain

ratio of amounts bound (altered form/GLS3000): 0.95
B24: GLS3000 S56P one-arm antibody (antibody, human IgG1, kappa, L234A L235A, N297A, name in Kabat numbering)
light: B2 light with G61P
heavy: B2 heavy
chain: B2 chain

ratio of amounts bound (altered form/GLS3000): 0.92
B26: GLS3000 S56N one-arm antibody (antibody, human IgG1, kappa, L234A L235A, N297A, name in Kabat numbering)
light: B2 light with G61N
heavy: B2 heavy
chain: B2 chain

ratio of amounts bound (altered form/GLS3000): 1.02
B27: GLS3000 S56L one-arm antibody (antibody, human IgG1, kappa, L234A L235A, N297A, name in Kabat numbering)
light: B2 light with G61L
heavy: B2 heavy
chain: B2 chain

The remaining lines, values behind:

B1: GLS3000 Q90D one-arm antibody (antibody, human IgG1, kappa, L234A L235A, N297A, name in Kabat numbering)
light: B2 light with G61S, Q95D
heavy: B2 heavy
chain: B2 chain
ratio of amounts bound (altered form/GLS3000): 0.19

B3: GLS3000 S52P one-arm antibody (antibody, human IgG1, kappa, L234A L235A, N297A, name in Kabat numbering)
light: B2 light with S57P, G61S
heavy: B2 heavy
chain: B2 chain
ratio of amounts bound (altered form/GLS3000): 0.33

B4: GLS3000 S52Q one-arm antibody (antibody, human IgG1, kappa, L234A L235A, N297A, name in Kabat numbering)
light: B2 light with S57Q, G61S
heavy: B2 heavy
chain: B2 chain
ratio of amounts bound (altered form/GLS3000): 1.05

B5: GLS3000 R54E one-arm antibody (antibody, human IgG1, kappa, L234A L235A, N297A, name in Kabat numbering)
light: B2 light with R59E, G61S
heavy: B2 heavy
chain: B2 chain
ratio of amounts bound (altered form/GLS3000): 0.58

B6: GLS3000 R54P one-arm antibody (antibody, human IgG1, kappa, L234A L235A, N297A, name in Kabat numbering)
light: B2 light with R59P, G61S
heavy: B2 heavy
chain: B2 chain
ratio of amounts bound (altered form/GLS3000): 0.84

B7: GLS3000 S52Y one-arm antibody (antibody, human IgG1, kappa, L234A L235A, N297A, name in Kabat numbering)
light: B2 light with S57Y, G61S
heavy: B2 heavy
chain: B2 chain
ratio of amounts bound (altered form/GLS3000): 1.12

B8: GLS3000 R54W one-arm antibody (antibody, human IgG1, kappa, L234A L235A, N297A, name in Kabat numbering)
light: B2 light with R59W, G61S
heavy: B2 heavy
chain: B2 chain
ratio of amounts bound (altered form/GLS3000): 0.78

B10: GLS3000 Q93E one-arm antibody (antibody, human IgG1, kappa, L234A L235A, N297A, name in Kabat numbering)
light: B2 light with G61S, Q98E
heavy: B2 heavy
chain: B2 chain
ratio of amounts bound (altered form/GLS3000): 0.75

B12: GLS3000 R54S one-arm antibody (antibody, human IgG1, kappa, L234A L235A, N297A, name in Kabat numbering)
light: B2 light with R59S, G61S
heavy: B2 heavy
chain: B2 chain
ratio of amounts bound (altered form/GLS3000): 0.79

B13: GLS3000 Q90S one-arm antibody (antibody, human IgG1, kappa, L234A L235A, N297A, name in Kabat numbering)
light: B2 light with G61S, Q95S
heavy: B2 heavy
chain: B2 chain
ratio of amounts bound (altered form/GLS3000): 0.73

B15: GLS3000 Q90P one-arm antibody (antibody, human IgG1, kappa, L234A L235A, N297A, name in Kabat numbering)
light: B2 light with G61S, Q95P
heavy: B2 heavy
chain: B2 chain
ratio of amounts bound (altered form/GLS3000): 0.27

B17: GLS3000 Q93S one-arm antibody (antibody, human IgG1, kappa, L234A L235A, N297A, name in Kabat numbering)
light: B2 light with G61S, Q98S
heavy: B2 heavy
chain: B2 chain
ratio of amounts bound (altered form/GLS3000): 0.96

B19: GLS3000 Q93P one-arm antibody (antibody, human IgG1, kappa, L234A L235A, N297A, name in Kabat numbering)
light: B2 light with G61S, Q98P
heavy: B2 heavy
chain: B2 chain
ratio of amounts bound (altered form/GLS3000): 0.25

B20: GLS3000 R54T one-arm antibody (antibody, human IgG1, kappa, L234A L235A, N297A, name in Kabat numbering)
light: B2 light with R59T, G61S
heavy: B2 heavy
chain: B2 chain
ratio of amounts bound (altered form/GLS3000): 0.65

B22: GLS3000 S56E one-arm antibody (antibody, human IgG1, kappa, L234A L235A, N297A, name in Kabat numbering)
light: B2 light with G61E
heavy: B2 heavy
chain: B2 chain
ratio of amounts bound (altered form/GLS3000): 0.71

B25: GLS3000 Q93R one-arm antibody (antibody, human IgG1, kappa, L234A L235A, N297A, name in Kabat numbering)
light: B2 light with G61S, Q98R
heavy: B2 heavy
chain: B2 chain
ratio of amounts bound (altered form/GLS3000): 1.13

B28: GLS3000 Q93D one-arm antibody (antibody, human IgG1, kappa, L234A L235A, N297A, name in Kabat numbering)
light: B2 light with G61S, Q98D
heavy: B2 heavy
chain: B2 chain
ratio of amounts bound (altered form/GLS3000): 0.72

B29: GLS3000 R54Q one-arm antibody (antibody, human IgG1, kappa, L234A L235A, N297A, name in Kabat numbering)
light: B2 light with R59Q, G61S
heavy: B2 heavy
chain: B2 chain
ratio of amounts bound (altered form/GLS3000): 0.68

B30: GLS3000 Q90E one-arm antibody (antibody, human IgG1, kappa, L234A L235A, N297A, name in Kabat numbering)
light: B2 light with G61S, Q95E
heavy: B2 heavy
chain: B2 chain
ratio of amounts bound (altered form/GLS3000): 0.86

B31: GLS3000 R77S one-arm antibody (antibody, human IgG1, kappa, L234A L235A, N297A, name in Kabat numbering)
light: B2 light with G61S, R82S
heavy: B2 heavy
chain: B2 chain
ratio of amounts bound (altered form/GLS3000): 0.92

B32: GLS3000 Q93A one-arm antibody (antibody, human IgG1, kappa, L234A L235A, N297A, name in Kabat numbering)
light: B2 light with G61S, Q98A
heavy: B2 heavy
chain: B2 chain
ratio of amounts bound (altered form/GLS3000): 0.85

B33: GLS3000 R54G one-arm antibody (antibody, human IgG1, kappa, L234A L235A, N297A, name in Kabat numbering)
light: B2 light with R59G, G61S
heavy: B2 heavy
chain: B2 chain
ratio of amounts bound (altered form/GLS3000): 0.67
